Experimental data published in patent US7118886 (HSC RESEARCH AND DEVELOPMENT LIMITED PARTNERSHIP, dated 2006).

Target: T1, GAL4 DNA binding domain fused to the five SH3 domains of Ese1 (amino acids 665-1213) (mouse, UniProt P04386 1-147 (Saccharomyces cerevisiae entry))
T1 construct: Yeast two-hybrid bait; also called pGBT9Ese1A3.3; SH3 domain bait of Ese1
Test: yeast two-hybrid screen with amino acids 665-1213 of Ese1 as bait

B1: Mouse YNK1 partial protein, GAL4 activation domain library clone (other, not shown: large carriers)
chain: LRAEGAKFRAVLDKAVQADGQVKERYQSHRDTIALLCKPEPELNAAIPSANPAKTMQGSEVVSVLKSLLSNLDEIKKERESLENDLKSVNFDMTSKFLTALAQDGVINEEALSVTELDRIYGGLTSKVQESLKKQEGLLKNIQVSHQEFSKMKQSNNEANLREEVLKNLATAYDNFVELVANLKEGTKFYNELTEILVRFQNKCSDIVFARKTERDELLKDLQQSIAREPSAPSIPPPAYQSSPAAGHAAAPPTPAPRTMPPAKPQPPARPPPPVLPANRVPPASAAAAPAGVGTASAAPPQTPGSAPPPQAQGPPYPTYPGYPGYCQMPMPMGYNPYAYGQYNMPYPPVYHQSPGQAPYPGPQQPTYPFPQPPQQSYYPQQ
  binding result: binds
